The values that follow come from patent US20140335107A1 (published 2014).

Numbering of substitutions follows the chain as printed. Names and notes keep the numbering of the source. Where no end group is shown, it is not given here. Where only a bound is given, the exact number is not on record here.

The target in experiment [1] is T1, extracellular domain of human CD79b (huCD79becd) (human, UniProt P40259 29-159).
T1 construct: expressed in CHO cells
T1 sequence: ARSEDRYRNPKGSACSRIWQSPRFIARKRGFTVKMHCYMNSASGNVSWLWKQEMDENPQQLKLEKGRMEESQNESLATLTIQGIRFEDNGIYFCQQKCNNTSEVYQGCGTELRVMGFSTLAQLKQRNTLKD
In words: Biacore (SPR), IgG. The method, then:
(§1) Binding of Fab and IgG variants of MA79b, the MA79b-grafted “humanized” antibody or MA79b-grafted “humanized” antibody variants to immobilized huCD79becd or huCD79b-Fc or the 16 amino acid peptide containing the epitope for MA79b was measured by surface plasma resonance. Affinity determinations were performed by surface plasmon resonance using a BIAcore™-2000. The antigen, huCD79becd or huCD79b-Fc was immobilized (approximately 50-200 RU) in 10 mM sodium acetate pH 4.8 on a CM5 sensor chip. Due to a large avidity effect, affinity measurements were sensitive to the amount of huCD79becd immobilized. For this reason, affinities, determined for samples run on different days, were normalized to MA79b that was run along side as a standard. In experiments that measured binding to the 16 amino acid peptide containing the epitope for MA79b ([…]) (SEQ ID NO: 16), the biotinylated peptide was captured (approximately 20 RU) on a streptavidin coated sensor chip. Purified MA79b-grafted “humanized” antibody variant (as Fab or IgG) (a 2-fold serial dilution of 0.5 to 1000 nM in PBST) was injected at a flow rate of 30 μL/min. Each sample was analyzed with 4-minute association and 10-minute disassociation. After each injection the chip was regenerated using 10 mM Glycine pH 1.7. […]

For experiment [2], the target named is T2, human CD79b (human, UniProt P40259 29-229).
T2 construct: endogenous CD79b on B-cell lines (BJAB, BJAB-luciferase, DoHH-2); also called PRO36249; CD79b expressed on the surface of BJAB-luciferase cells
T2 sequence: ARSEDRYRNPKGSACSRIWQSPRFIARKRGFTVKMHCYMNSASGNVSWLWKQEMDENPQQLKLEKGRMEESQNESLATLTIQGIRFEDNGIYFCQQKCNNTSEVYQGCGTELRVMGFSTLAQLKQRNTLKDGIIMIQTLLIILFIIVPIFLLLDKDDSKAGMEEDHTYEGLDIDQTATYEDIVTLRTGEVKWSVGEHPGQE
Nature of the experiment: FACS on BJAB-luciferase cells. The method, then:
The binding affinity of thio huMA79b.v18, thio huMA79b.v28 drug conjugates and thio MA79b drug conjugates to CD79b expressed on BJAB-luciferase cells was determined by FACS analysis. Further, the binding affinity of thio anti-cynoCD79b(ch10D10) drug conjugates to CD79b expressed on BJAB cells expressing cynoCD79b was determined by FACS analysis.
Briefly, approximately 1×10⁶ cells in 100 μl were contacted with varying amounts (1.0 μg, 01. μg or 0.01 μg of Ab per million cells of BJAB-luciferase cells or BJAB cells expressing cynoCD79b (for anti-cynoCD79b thioMAbs)) of one of the following anti-CD79b thioMAb drug conjugates or naked (unconjugated Ab as a control): (1) thio MA79b-LC(V205C)-MC-MMAF or (2) thio MA79b-HC(A118C)-MC-MMAF (FIGS. 29A-B, respectively); (3) thio huMA79b.v18-HC(A118C)-MC-MMAF, (4) thio huMA79b.v18-HC(A118C)-MC-vcPAB-MMAE or (5) thio huMA79b.v18-HC(A118C)-BMPEO-DM1 (FIGS. 30B-D, respectively); (6) thio huMA79b.v28-HC(A118C)-MCvcPAB-MMAE, (7) thio huMA79b.v28-HC(A118C)-BMPEO-DM1, or (8) thio huMA79b.v28-HC(A118C)-MC-MMAF (see FIGS. 31B-31D, respectively); or (9) thio anti-cynoCDb79(ch10D10)-HC(A118C)-MCvcPAB-MMAE, (10) thio anti-cynoCD79b(ch10D10)-HC(A118C)-BMPEO-DM1 or (11) thio anti-cynoCD79b(ch10D10)-HC(A118C)-MC-MMAF (see FIGS. 32B-32D, respectively). PE conjugated mouse anti-human Ig was used as the secondary detecting antibody (BD Cat#555787).

Experiment [3] concerns the target T2, human CD79b. Nature of the experiment: Scatchard analysis on BJAB cells stably expressing cynomolgus CD79b and endogenous human CD79b.
The target of experiment [4] is T1, extracellular domain of human CD79b …. In words: Biacore (SPR), IgG (FIG. 12). As for the experimental part: as §1
In general terms: Surface plasmon resonance follows binding to a sensor surface in real time, without labels.

The target is the same in experiment [5]. In words: phage selection, Fab on phage. As for the experimental part:
For phage selection, the extracellular domain of CD79b (huCD79becd) (2 μg/ml) was immobilized in PBS on MaxiSorp microtiter plates (Nunc) overnight at 4° C. Plates were blocked for at least 1 h using Casein Blocker (Pierce). Phage were harvested from the culture supernatant and suspended in PBS containing 0.5% BSA and 0.05% Tween 20 (PBSBT). Following addition of the phage library and phage selection for 2 h, microtiter wells were washed extensively with PBS containing 0.05% Tween 20 (PBST) to remove unbound phage and bound phage were eluted by incubating the wells with 100 mM HCl for 30 min. Selection stringency may be increased during successive rounds of selection by increasing the number of washes with PBST or by incubating with soluble huCD79becd for increasing time periods prior to elution.

The target in experiment [6] is T2, human CD79b. In words: FACS on DoHH-2 cells, Fab (data not shown). The method, then:
To further determine binding of the Fab variants of MA79b-grafted “humanized” antibody or antibody variants, binding of Fab and/or IgG variants to DoHH-2 cells were analyzed using FACS analysis. Further, binding of MA79b-grafted “humanized” antibody variants to BJAB-luciferase cells was analyzed using FACS analysis.
For FACS analysis of Fab variants of MA79b-grafted “humanized” antibody variants (MA79b-grafted “humanized” antibody (IgG version used as a control)), DoHH-2 cells (1×10⁶ in 100 μl volume) were first incubated with or without 1 μg of original mouse anti-CD79b monoclonal antibody (MA79b) for 30 minutes, before adding 1 μg of individual Fab variant (or control antibody).

Experiment [7] deals with T3, extracellular domain of human CD79b fused to Fc (huCD79becd-Fc) (human, UniProt P40259 29-159).
T3 construct: expressed in CHO cells; also called huCD79b-Fc; not shown: Fc part of the fusion is not described
T3 sequence: T1 sequence
Nature of the experiment: Biacore (SPR), Fab. As for the experimental part:
as §1

Experiment [8] has as its target T1, extracellular domain of human CD79b …. In words: FACS analysis, IgG (data not shown). In general terms: Flow cytometry measures light scatter and fluorescence of single cells or particles in a stream.
Experiment [9] deals with T2, human CD79b. Nature of the experiment: Scatchard analysis, 125I-labeled IgG competed with unlabeled IgG on BJAB cells stably expressing cynomolgus CD79b and endogenous human CD79b. The method, then: To further determine binding of the IgG variants having changes in HVR-L2 and HVR-H3 (huMA79b L2/H3), binding of iodinated IgG variants to BJAB cells expressing human CD79b and cynomologous CD79b was analyzed and Scatchard analysis was performed.
For Scatchard analysis, 0.5 nM I¹²⁵ labeled MA79b or huMA79b L2/H3 was competed against unlabeled MA79b or huMA79b L2/H3, respectively, ranging from 50 to 0.02 nM (12 step 1:2 serial dilution) in the presence of a transfected BJAB line stably expressing cynomologous-CD79b and endogenous human-CD79b. After a four hour incubation at 4° C., cells were washed and cell pellet counts were read by a gamma counter (1470 WIZARD Automatic Gamma Counter; Perkin Elmer, Walthem, Mass.). All points were done in triplicate and counted for 10 minutes. The average CPM was used for Kd calculation using the New Ligand (Genentech, South San Francisco, Calif.) program.

Experiment [10] concerns the target T4, 16 amino acid peptide containing the epitope for MA79b (ARSEDRYRNPKGSACK) (human, also: biotinylated (site not given here)).
T4 construct: synthesized; captured on a streptavidin coated sensor chip; also called biotinylated peptide
T4 peptide: ARSEDRYRNPKGSACK
In words: Biacore (SPR), biotinylated peptide captured on streptavidin chip. The method, then:
as §1

Experiment [11] deals with T3, extracellular domain of human CD79b …. Nature of the experiment: Biacore (SPR), Fab against IgG on immobilized huCD79becd-Fc. As for the experimental part: as §1

B1: MA79b-grafted humanized antibody variant 18 (huMA79b.v18) (antibody, human IgG1, kappa)
light: DIQLTQSPSSLSASVGDRVTITCKASQSVDYDGDSFLNWYQQKPGKAPKLLIYAASNLESGVPSRFSGSGSGTDFTLTISSLQPEDFATYYCQQSNEDPLTFGQGTKVEIKRTVAAPSVFIFPPSDEQLKSGTASVVCLLNNFYPREAKVQWKVDNALQSGNSQESVTEQDSKDSTYSLSSTLTLSKADYEKHKVYACEVTHQGLSSPVTKSFNRGEC
heavy: not shown
notes: IgG
In the case of B1, the “fold improvement in dimeric binding compared to variant 17” value in experiment [1] was 2 fold.

B2: thio huMA79b.v28-HC(A118C)-MC-MMAF (antibody, human IgG1, kappa)
light: B1 light with D32E
heavy: not shown
modifications: MC-MMAF on the engineered Cys at EU position 118 (sequential position 118; Kabat position 114)
notes: TDC
In the case of B2, the binding result in experiment [2] is “binds”.

B3: thio huMA79b.v28-HC(A118C)-BMPEO-DM1 (antibody, human IgG1, kappa)
light: B1 light with D32E
heavy: not shown
modifications: BMPEO-DM1 on the engineered Cys at EU position 118 (sequential position 118; Kabat position 114)
notes: TDC
As to B3, the binding result in [2] is reported as “binds”.

B4: MA79b-grafted humanized antibody variant 28 (huMA79b.v28) (antibody, human IgG1, kappa)
light: B1 light with D32E
heavy: not shown
notes: IgG
B4: the Kd in [3] stood at 0.44 nM.

B5: MA79b-grafted humanized antibody variant 32 (huMA79b.v32) (antibody, human IgG1, kappa, V domains shown)
VH: EVQLVESGGGLVQPGGSLRLSCAASGYTFSSYWIEWVRQAPGKGLEWIGEILPGGGDTNYNEIFKGRATFSADTSKNTAYLQMNSLRAEDTAVYYCTRRVPIRLDYWGQGTLVTVSS
VL: DIQLTQSPSSLSASVGDRVTITCKASQSVDYSGDSFLNWYQQKPGKAPKLFIYAASNLESGVPSRFSGSGSGTDFTLTISSLQPEDFATYYCQQSNEDPLTFGQGTKVEIKR
notes: IgG
B5: the Kd in experiment [3] was found to be 0.24 nM.

B6: MA79b-grafted humanized antibody variant 17 (huMA79b.v17) (antibody, human IgG1, kappa, V domains shown)
VH: B5 VH with I102V, R103Y, L104F
VL: B5 VL with S32D, F51L
notes: IgG
As to B6, the binding result in experiment [4] is listed as “binds”.

B7: huMA79b graft variant with HVR-H3 of SEQ ID NO: 94 (huMA79b H3-10), Fab (Fab, name in Kabat numbering, V domains shown)
VH: B5 VH with I48V, A68F, F70I
VL: B5 VL with L4M, S32D, F51L
notes: selected as Fab on phage; also made as soluble Fab for FACS; also called H3-10 mutation
B7: the binding result in experiment [5] and in [6] was “binds” each time.

B8: huMA79b graft variant with HVR-L2 of SEQ ID NO: 22 (huMA79b L2-2), Fab (Fab, name in Kabat numbering, V domains shown)
VH: B5 VH with I48V, A68F, F70I, I102V, R103Y, L104F
VL: B5 VL with L4M, S32D, F51L, S56R, N57K, E59G, S60R
notes: selected as Fab on phage; also made as soluble Fab for FACS and Biacore; also called L2-2 mutation
In the case of B8, the “fold improvement in monomeric binding compared to MA79b (Fab)” value in experiment [7] came out at 5 fold.

B9: MA79b-grafted humanized antibody (huMA79b graft), IgG (antibody, V domains shown)
VH: B5 VH with I48V, A68F, F70I, I102V, R103Y, L104F
VL: B5 VL with L4M, S32D, F51L
notes: expressed as an IgG
Turning to B9, the “fold loss of binding affinity” value in experiment [1] is > 50 fold. For the same molecule, the “fold reduction of binding affinity” value in experiment [8] was > 100 fold.

B10: MA79b-grafted humanized antibody variant L2/H3 (huMA79b L2/H3), IgG (antibody, name in Kabat numbering, V domains shown)
VH: B5 VH with I48V, A68F, F70I
VL: B5 VL with L4M, S32D, F51L, S56R, N57K, E59G, S60R
notes: L2-2 and H3-10 mutations combined on the huMA79b graft; 125I-labeled in the Scatchard assay
In experiment [9], B10 had a Kd of 0.52 nM. In experiment [10], the binding result is “binds”.

B11: murine anti-CD79b monoclonal antibody MA79b (antibody, V domains shown)
VL: DIVLTQSPASLAVSLGQRATISCKASQSVDYDGDSFLNWYQQKPGQPPKLFIYAASNLESGIPARFSGSGSGTDFTLNIHPVEEEDAATYYCQQSNEDPLTFGAGTELELKR
VH: EVQLQQSGAELMKPGASVKISCKATGYTFSSYWIEWVKQRPGHGLEWIGEILPGGGDTNYNEIFKGKATFTADTSSNTAYMQLSSLTSEDSAVYYCTRRVPVYFDYWGQGTSVTVSS
notes: murine monoclonal IgG; 125I-labeled in the Scatchard assay; also called murine CD79b antibody
In the case of B11, in experiment [11], the “fold avidity component (dimeric IgG binding against monomeric Fab binding)” value stood at 100 fold. For the same molecule, the Kd in [9] amounted to 0.63 nM.

What is called Kd is a measure of binding affinity in units of concentration. A higher Kd goes with a looser complex.
